According to patent publication US7534862:

How the values were obtained:
[1] = target: IL-6/sIL-6R complex (100 ng/ml IL-6 + 50 ng/ml sIL-6R) (UniProt P05231); assay: cell-based or functional assay
[2] = target: hyper-IL-6 (H-IL-6), a fusion protein comprising IL-6+sIL-6R (UniProt P08887); assay: cell-based or functional assay
Sequence of hyper-IL-6 (H-IL-6), a fusion protein comprising IL-6+sIL-6R (P08887 20-323 limits assumed, chain 1 of 2): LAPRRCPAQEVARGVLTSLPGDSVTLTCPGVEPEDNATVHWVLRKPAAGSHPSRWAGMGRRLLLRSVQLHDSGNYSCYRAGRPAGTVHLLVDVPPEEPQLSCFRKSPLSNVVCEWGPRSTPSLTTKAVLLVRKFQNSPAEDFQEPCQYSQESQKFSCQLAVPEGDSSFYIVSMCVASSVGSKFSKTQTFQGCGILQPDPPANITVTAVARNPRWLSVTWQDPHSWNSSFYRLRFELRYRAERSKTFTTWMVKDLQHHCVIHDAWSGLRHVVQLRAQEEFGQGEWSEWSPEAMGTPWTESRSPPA
Sequence of hyper-IL-6 (H-IL-6), a fusion protein comprising IL-6+sIL-6R (P05231 30-212 limits assumed, chain 2 of 2, further chain): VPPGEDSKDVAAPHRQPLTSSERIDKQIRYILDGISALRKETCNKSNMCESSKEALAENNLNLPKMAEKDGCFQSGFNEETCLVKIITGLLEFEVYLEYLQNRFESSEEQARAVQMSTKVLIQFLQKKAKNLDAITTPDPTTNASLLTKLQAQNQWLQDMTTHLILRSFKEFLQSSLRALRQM

Sequence of IL-6/sIL-6R complex (100 ng/ml IL-6 + 50 ng/ml sIL-6R) (P05231 30-212 limits assumed, chain 1 of 2): as the sequence (P05231 30-212 limits assumed, chain 2 of 2, further chain) above
Sequence of IL-6/sIL-6R complex (100 ng/ml IL-6 + 50 ng/ml sIL-6R) (P08887 20-358 limits assumed, chain 2 of 2, further chain): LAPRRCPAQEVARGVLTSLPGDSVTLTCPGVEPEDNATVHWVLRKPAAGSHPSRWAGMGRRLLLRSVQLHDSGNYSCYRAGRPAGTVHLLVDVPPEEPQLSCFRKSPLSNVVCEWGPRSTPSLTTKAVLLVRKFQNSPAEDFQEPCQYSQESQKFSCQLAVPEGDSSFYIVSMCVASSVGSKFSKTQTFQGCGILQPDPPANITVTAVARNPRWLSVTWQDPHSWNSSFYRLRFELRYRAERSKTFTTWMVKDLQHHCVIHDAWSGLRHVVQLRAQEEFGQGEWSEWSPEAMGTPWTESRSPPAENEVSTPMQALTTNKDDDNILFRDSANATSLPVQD

factor of improvement over sgp130Fc in inhibition of BAF/gp130 proliferation (fold vs sgp130Fc) [1]: 1.5 to 3
half-maximal [3H]-thymidine incorporation of BAF/gp130 cells (proliferation) [1]: 1 to 5 ng/mL
STAT3 activity (relative luciferase activity, pSTAT3-TA-Luc reporter in BAF/gp130 cells) at 10 ug/ml inhibitor, 5 ng/ml H-IL-6 (% of activity with H-IL-6 alone) [2]: 18
concentration giving half-maximal activation of STAT3 (H-IL-6-induced, luciferase reporter in BAF/gp130 cells) [2]: 2.5 µg/mL
efficiency relative to sgp130Fc in inhibition of H-IL-6-induced STAT3 activation (fold vs sgp130Fc) [2]: 2 to 3
factor of improvement over sgp130Fc in inhibition of BAF/gp130 proliferation (fold vs sgp130Fc) [2]: 1.5 to 3
half-maximal [3H]-thymidine incorporation of BAF/gp130 cells (proliferation) [2]: 1 to 5 ng/mL
B1: sgp130PEG (PEGylated sgp130(D1-D3)-Pn dimer) (receptor, part only)
chain: MLTLQTWVVQALFIFLTTESTGELLDPCGYISPESPVVQLHSNFTAVCVLKEKCMDYFHVNANYIVWKTNHFTIPKEQYTIINRTASSVTFTDIASLNIQLTCNILTFGQLEQNVYGITIISGLPPEKPKNLSCIVNEGKKMRCEWDGGRETHLETNFTLKSEWATHKFADCKAKRDTPTSCTVDYSTVYFVNIEVWVEAENALGKVTSDHINFDPVYKVKPNPPHNLSVINSEELSSILKLTWTNPSIKSVIILKYNIQYRTKDASTWSQIPPEDTASTRSSFTVQDLKPFTEYVFRIRCMKEDGKGYWSDWSEEASGITYEDRP
modifications: C-terminal Pn cysteine peptide unsequenced; PEGylated; disulfide dimer
